For assay [1], the target named is albumin (Sigma A9731) (human) (UniProt P02768). As to the kind of experiment: SPR (CM5 chip), albumin immobilised, FcRn in solution, pH 5.8, 25 C.
The target is the same in assay [2]. Description: SPR (C1 chip), FcRn-biotin on surface, albumin injected, pH 5.8, 25 C.
Assay [3] concerns the target human IgG3 (human) (UniProt P01860). As to the kind of experiment: SPR (CM5 chip), IgG immobilised, FcRn in solution, pH 5.8, 25 C.
The target in assay [4] is human IgG4 (human). Described as above.
The target in assay [5] is human IgG3 (human) (UniProt P01860). Description: SPR (C1 chip), FcRn-biotin on surface, IgG injected, pH 5.8; estimated from limited surface saturation.
Assay [6] has as its target human IgG1 (human). The description is as above.
Assay [7] concerns the target human IgG4 (human). The assay is described as above.
In assay [8] the target is human IgG2 (human). The assay is described as above.

pKd: −log10 of the molar value.

human IgG3 (human), sequence (P01860 other isoform, or with tags, fused parts or gaps): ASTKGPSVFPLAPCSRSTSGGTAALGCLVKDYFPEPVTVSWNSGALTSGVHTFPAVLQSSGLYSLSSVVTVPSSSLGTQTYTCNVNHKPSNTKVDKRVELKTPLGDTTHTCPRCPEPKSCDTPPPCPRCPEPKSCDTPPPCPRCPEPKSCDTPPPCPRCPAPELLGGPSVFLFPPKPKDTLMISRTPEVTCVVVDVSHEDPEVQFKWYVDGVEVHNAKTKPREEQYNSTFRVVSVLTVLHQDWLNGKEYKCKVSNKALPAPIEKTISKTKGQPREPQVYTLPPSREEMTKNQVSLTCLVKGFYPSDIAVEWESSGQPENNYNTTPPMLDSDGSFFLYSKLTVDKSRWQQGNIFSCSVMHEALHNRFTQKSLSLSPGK
human IgG2 (human), sequence (Fc, as listed by the source limits assumed): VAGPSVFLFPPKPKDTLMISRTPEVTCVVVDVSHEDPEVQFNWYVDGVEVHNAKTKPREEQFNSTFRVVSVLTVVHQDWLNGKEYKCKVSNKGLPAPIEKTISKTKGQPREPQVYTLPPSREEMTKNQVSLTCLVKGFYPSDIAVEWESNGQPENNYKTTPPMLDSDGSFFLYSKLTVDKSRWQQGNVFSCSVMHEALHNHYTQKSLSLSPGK

With “FcRn W131R (extracellular domain with beta2 microglobulin) (from UniProt P61769 21-119) (receptor)”, the pKd in assay [1] was 6.36; in assay [2], 5.77.
As to “FcRn M118I (extracellular domain with beta2 microglobulin) (from UniProt P61769 21-119) (receptor)”, the pKd in assay [3] was 6.68; in assay [4], 6.62; in assay [5], 5.38; in assay [6], 5.28; in assay [7] it was 4.90; in assay [8] it was 5.18. Moreover, the pKd in assay [1] was 6.32; in assay [2] it was 5.72.
“FcRn E133K (extracellular domain with beta2 microglobulin) (from UniProt P61769 21-119) (receptor)”: the negative logarithm of the Kd (pKd) in assay [1] is 6.02.

These data come from US20250297287A1.
